Results as given in the nanobody polyreactivity screen of Harvey et al. (2022).

Assay: yeast display, Sf9 membrane polyspecificity reagent, FACS + sequencing; frameworks hold sequencing errors
Method in brief: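 A synthetic nanobody library was expressed on Saccharomyces cerevisiae BJ5465 by galactose induction for 36–48 hours. The library was stained for 1 hour at 4 °C with 10% biotinylated, detergent-solubilized Sf9 membrane reagent and enriched with streptavidin microbeads before FACS. Low and high (top ~1%) gates were set on anti-HA fluorescence for expression and streptavidin fluorescence for reagent binding, and each polyreactivity label reflects the gate of origin.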

## QVQLVESVGGLVQAGGSLRLTCAASGIIFAWYVMGWYRQAPGKERELVAAITQSGGSTFYADSVKGRFTISRDNAKNTVYLQMNSLKPEDTAVYYCNTEDFVNVPEMDSWGQGTQVTVSS
  polyreactivity (PSR sort gate): low polyreactivity

## QVQLVESGGGLVQAGGSLRLSCAASGRIFPVYTMGWYRQAPGKERELVAAISGNGASTYYADSVKGRFTISRDNAKNTVYLQMNSLKPEDTAVYYCAAYFYYWGSTFVRYEYWGQGTQVTVSS
  polyreactivity (PSR sort gate): high polyreactivity

## QVQLVVSGGGLVQAGGSLRLSCAASGYTFDDYAMAWYRQAPGKERELVAAISRGGSTYYADSVKGRFTISRDNAKNTVYLQMNSLIPEDTSVYYCAAVYRVRKITNDYWGQGTQVTVSS
  polyreactivity (PSR sort gate): high polyreactivity

## QDQLVESGGGIVQAGGSLRLSCAASGSTFPIYAMGWYRQAPGKERELVADITSTGSTDYADSVKGRFTISRDNAKNTVYLQMNSLKPEDTAVYYCAADYYYSAYFWSDFDYWGQGTQVTVSS
  polyreactivity (PSR sort gate): high polyreactivity

## QVQLVESGGGLVQAGGSLRLSCAASGYIFERNAMGWYRQAPGKERELVAAITDDGDDTYYADSVKGRFTISRDNAKNTVFLLMNSLKPEDTAVYYCAKDLYYGDYYYWGQGTQVTVSS
  polyreactivity (PSR sort gate): low polyreactivity

## QVQLVESGGRLVQAGGSLRLSCAASGFTYQGNAMGWYRQAPGKERVLVAAISRGGSTYYADSVKGRFTISRDNAKNTVYLQMNRLKPEDTAVYYGAAKPSVDLDYWGQGTQVTVSS
  polyreactivity (PSR sort gate): high polyreactivity

## QVQLVESGGGLVKAGGSLRLSCASSGYIFPFNAMGWYRQAPGKERELVAAITNGGRTYYADSVKGRFTISRDNAKNTVYLQMNSLKPDDTSVYYCAAGSKSDMDWGQGTQVTVSS
  polyreactivity (PSR sort gate): low polyreactivity

## QVQLVESGGGLVQAGGSLRLSCAASGGTFDNYAMGWYRQAHGKERELVAAISWSGDNTYYADSVKGRFTISRDNAKNTVYLQMNSLKPEVTAVYYCAAVYFWYSYDEGYTAYDYWGQGTQVTVSS
  polyreactivity (PSR sort gate): low polyreactivity

## QVQLVESGVGLVQAVGSLRLSCAASGIIFPYYPMGWYRQAPGKERELVAAISTGGSTYYADSVKGRFTISRDNAKNTVYLQMNSLKPEDTAVYFCAARVARYRSTKRYDYWGQGTQVSVSS
  polyreactivity (PSR sort gate): high polyreactivity

## QVQLVESGGGLVQAGGSLRLSCAASGSTFVWYAMGWYRQAPGKEREFVATISWSGDSTYYADSVKGRFTISRDNAKNTVYLQMNSLKPEDTAVYYCATAVYLVIFEYDYWGQGSQVTVSS
  polyreactivity (PSR sort gate): low polyreactivity

## QVQLVESGGGLVQAGGSLRLSGAATGSIIHPYAMGWYRQAPGKERELLAAISKSGGNTYYADSVKGRITISRDNAKNTVYLQMNSLKPEDTAVYYCAALDYWGQGTQVTVSS
  polyreactivity (PSR sort gate): low polyreactivity

## QVQLVESRGRLVQAGGSLRLSCAASGSIFGTYAMGWYRHAPGKERELVAAISWSDGSTYYADSVKGRFTISRDNAKYTVYLQMNSLKPEATEVYFCSKVYRSIGANVSRYGLSYYYWGQGTQVTVSS
  polyreactivity (PSR sort gate): low polyreactivity

## QVQLVESGGGLVQAGGSLRLSCAASGRIFSSNGMGWYRQAPGKERELVAAIRTDGGSTYYADSVKGRFTISRDNAKNTVYLQMNSLKPEDTAVYYCNAQGAYTDVFDVYQRQPDDYWGQGTQVTVSS
  polyreactivity (PSR sort gate): low polyreactivity

## KVQLVESGGGLVQAGGSLRLSCAASGSTFRTYAMGWYRQAPGKERELVADITWRGGSTYYADSVKGRFTISRDNAKNTDYFQMNSLKPEDTAVYYCATDRGPEVVLYVYWGQGTQVTVSS
  polyreactivity (PSR sort gate): low polyreactivity

## QVQLVESGGGLVQAGGSLRLSCAASGSIFHWYAMGWYRQAPGKERELVAAISYSGASTYYADSVKGRFTISRDNAKITVYLQMNSLKPDDTAVYYCAAKVTGKGYYWGQGTQVTVSS
  polyreactivity (PSR sort gate): high polyreactivity

## QVQLVESGGGLVQAGGSLRLSCAASGGTFTRYAMGWYRQAPGKEREFVAAITFSGGSTYYADSVKGRFTISRDNAKNTVYLQMNSLKPEDTAVYYCAVRERSTYRYYYWGQGTQVTVSS
  polyreactivity (PSR sort gate): high polyreactivity

## QVQLVESAGGLVQAGGSLSLSCAASGTFYLYARGWYRQAPGKQRELVAAISGSGSTNYADSVKGRFTISRDNAKNTVYLQMNSLKPEDTAVYYCAAYQRYDSVTGARYEYDYWGQGTQVTVSS
  polyreactivity (PSR sort gate): low polyreactivity

## QVQLVESGGGLVQAGGSLRLSCAASGRSLEHNAMGWYSQAPGKERELVAAISGSGGTTYYADSVKGRFTISRDNAKNTVYLQMNSLKPEDTAVYYCNAKLYRSFDYWGQGTQVTVSS
  polyreactivity (PSR sort gate): low polyreactivity

## QVQLVESGGGLVQAGGSLRLSCAASGFTFVDYAMGWYRQAPGKERELVAAISSSGDSTYYADSVKGRFTISRDNAKITVYLQMNSLKPEDTAVYYCAAEYDREEYSGYDYWGQGTQVTVSS
  polyreactivity (PSR sort gate): low polyreactivity

## QVQLVESGGGLVQAGGSLRLSCAASGSTFYLYDMGWYRQAPGKERELVATITSGTSTTYADSVKGRFTISRDNAKNTVYLQMISLKPEDTAVYYCNVYKPPTRGGVLEYGYWGQGTQVTVSS
  polyreactivity (PSR sort gate): low polyreactivity

## QVQLVESGVGLVQAGGSLRISCAASGFIFVTNVMGWYRQAPGKEREFVAAITARGGTTYYADSVKGRFTISRDNAKNTVYLQMNRLKPEDTAVYYCAAGYGVIKSLSHFYYWGQGTQVTVSS
  polyreactivity (PSR sort gate): low polyreactivity

## QVQLVESGGGLLQAGGSLRLSCASSGRTFKANAMVWYRQAPGKERELVAAISYSGGNTYYADSVKGRFTISRDNANNTVYLQMNSLKPEDTAVYYCARYYYLPVVDMDYWGQGTQVTVSS
  polyreactivity (PSR sort gate): high polyreactivity

## QVQLVESGVGLVQAGGSLRLSCAASGRTFPSYNMGWYRQAPGKERELVAAITWTGGSTYYSDSVKGRFTISRDNAKNTVYLQMNSLKPEDTAVYYCATEEVYGQGNYWGQGTQVTVSS
  polyreactivity (PSR sort gate): low polyreactivity

## QVQLVESGGGLVQAGGSLRLSSAASGSTFVTYAMGWYRQAPGKERELVAAISRRGGSTYYADSVKGRFTISRDNAKNTVYLQMNCLKPEDTAVYYCAPVQGSYSRDGADDYWGQGTQVTVSS
  polyreactivity (PSR sort gate): high polyreactivity

## QVQLVESGGGLVQAGGSLRLSCAASGRIFRYYAMGWYRQAPGKERELVAAISSGGSTYYADSVKGRFTISRDNAKNTVYLQMNSLKQEDTAVYYCAADRRYSYNWGHGTQVTVSS
  polyreactivity (PSR sort gate): high polyreactivity

## QVQLVESGGGLVQAGGSLRLSCAASGRIFGFYAMGWYRQAPGKERELVARITSGGRTTYADSVKGRFTISRDNAKNTVYLQMNSLKPEDTAVYYCAADARYHGFPKVYYYRGGYDYWGQGTQVTVSS
  polyreactivity (PSR sort gate): high polyreactivity

## QVQLVESGGGLVQAGGSLRLSCAASGRTFPGNAMGWYRQAPGKERELVAAISYSGGRTYYSDSVKGRFTISRDNAKNTVYLQMNRLKPEDTAVYYCAKSIVQPSVAAYYYWGQGTQVTVSS
  polyreactivity (PSR sort gate): high polyreactivity

## QVQLEESGGGLVQAGGSLRLSCAASGRTFAFNAMGWYRPAPGKVRELVAVITSRTTRTYYADSVKGRFTISRDNAKNTVYLQMNSLKPEDTAVYYCAAGFRRQSIRFDYWGQGTQVTVSS
  polyreactivity (PSR sort gate): high polyreactivity

## QVQLVESGGGLVQAGGSLRLSCAASGRTSYGYAMGWYRQAPGKERDLFAAITYGGGSTYYADTVKGRFTISRDNANNTVYLQMNSLIPEDTALYYCAADRTGSTLYTISYYYWGQGTQVTVSS
  polyreactivity (PSR sort gate): low polyreactivity

## QVQLVESVGGLVQAGGSLRLSCAASGRIFRYYAMGWYRQAPGKERELVAAISISGGRTYYADSVKGRFSISRDNAKNTVYLQMNSLKPEDTAVYYCNADPYWYDRDKKYDYWGQGTQVTVSS
  polyreactivity (PSR sort gate): high polyreactivity

## QVQLVESGGGLVQAGGSLRLSCAASGRTFRANAMGWSRQAAGKERELVAAITWDGGSTYYADSVKGRFTISRDNAKNTVYLQMNSLKPEDTAVYYCAAESWFLRWYRYDYWGQGTQVTVSS
  polyreactivity (PSR sort gate): low polyreactivity

## QVQLVESGGGLVQAGGSLRLSCAASGRTFRVYVMGWYRQAPGKERELVAAIRSDASTNYADSVKGRFTISRDNAKNTVYLQMISLKPEDTAFYYCAARRGKSAGGYGDYYWGQGTQVTVSS
  polyreactivity (PSR sort gate): high polyreactivity

## QVQLVETGGGLVHAGGSLRLSCAASGSIFGLYAMGWYRQAPGKERELVAAITVSGGSTYYADSVKGRFTISRDNAKNTVYLQLNSLKPEDTAVYYCAARAGWPLYQYYYWGQGTQVTVSS
  polyreactivity (PSR sort gate): high polyreactivity

## QVQLVESGGGLFQAGGSLRLSCAASGSIFYINAMGWYRQAPGKERELVAAISQSDGSTYYADSVKGRFTISSDNAKNTVYLQLNSLKPEDTAVYYCAADAYVLFYGDWYEFDYWGQGTQVTVSS
  polyreactivity (PSR sort gate): high polyreactivity

## QVQLVESGGGLVQAGGSLRLSCAASGRIFIYYTMGWYRQAPGKEREFVAAITYSGGSTRYADSVKGRFTISRDNAKNTVYLQMNSLKPEDTAVYYCAAKFSVRRGFDYWGQGTQVTVSS
  polyreactivity (PSR sort gate): low polyreactivity

## QVQLVESGGGLVQAGGSLRLSCAASGGTIVWNAMGWYRQAPGKEREFVAAITSSGGSTYYADSVKGRFTISRDNEKNTVYLQMNSLKPEDTAVYYCNVDTHSSYEFNSWGQGTQVTVSS
  polyreactivity (PSR sort gate): low polyreactivity

## QVQHVESGGGLVQAGRSLRLICAASGRNSKGYAMAWDRQAPGKERELVAAYADSVKGRFTIARDNAKNTVYLQMNSLKPEDTAVYYCNADYDQVSRVGYVYWAYYYWGQGTQVTVSS
  polyreactivity (PSR sort gate): low polyreactivity

## QVQLVESGRGLVQAGGSLRLRCASSGRTFSSYAMGWSRQAPGKARELVAAITKRGGNTYYADSVKGRFTISRDNAKNTVYLQMNSLNPEDTAVYYCAAGWERFRNYNYWGQVTQVTVSS
  polyreactivity (PSR sort gate): high polyreactivity

## QVQLVESGGGLVQAGGSLRLSCAASGRTFGSYTMGWYRQAPGKERELVAAITSGGRTNYADSVKGRFTLSRDNAKNTVYLQMTSLKPEATAVYYCAAGLRGGRYRYFAYDYWGQGTQVTVSS
  polyreactivity (PSR sort gate): high polyreactivity

## QVQLVESGGGLVQAGGSLRLSCAASGRTFKPYAMGWYRQAPGKERELVAAISSRGTSTNYADSVKGRFTISRDNAKNTVYLQMNSLKPEDTAVYYCNRVLLPGPQYQWGKAYDYWGQGTQVTVSS
  polyreactivity (PSR sort gate): high polyreactivity

## QVQLVESGGGLVQAGGSLRISCAASGSIFASNTMGWYRQARGTERELVAGITKIGSSTYYADSVTGRFTISRDNAKNTVYLKMNSLKPEDTAVYYCNAYGPNIYSSRYDYWGQGTQVTVSS
  polyreactivity (PSR sort gate): low polyreactivity

## QVQLVESGGGLVQAGGSLRLSCAASGGIFSENAMGWYRQAPGKERELVAVITTSGGSTYYADSVKGRFTISRDNAKNTVYLQMNSLKPEDTAVYYCAADVLSWEYDYWGQGTQVTVSS
  polyreactivity (PSR sort gate): low polyreactivity

## QVQLVESGGGLVQAGGSLRLSCAASGSTFYKNAMGWYRPAPGKERELVAAISGSGGRTYYADSVKGRFTISRDNAKNTVYLQMNSLKPEDTAVYYCNAARAYYSLYYGLDYWGQGTQVTVSS
  polyreactivity (PSR sort gate): high polyreactivity
